Experimental data published in patent US12698483B2 (priority 2019, dated 2026).
“Also recorded” adds a separate entry of the source.

B1: TrGST-C02 (protein, listed as Triticum aestivum)
chain: MAGGDDLKLLGAWASPFVTRVKLALNFKGLSFEDVEEDLSNKSELLLSSNPVHKKVPVLVHNGKPICESVIIVQYIDEAFAGIGPALLPSDPYERAIARFWAAYVDDKLVAPWVQSLRAKTEEEKSEGLKQTFAAVETLEGALRECSKGEGYFGGETVGLVDISLGSLLSWLNATEVMSGTKIFDPVKTPLLAAWMERFSKLDAAKAALPEVDRVVEFAKKRQAQAAAAAAASETK
B2: TrGST-C12 (protein, listed as Triticum aestivum)
chain: MAGGDDLKLLGAWASPFVARVKLALSFKGLSFEDVEEDLSNKSELLLSSNPVHKKVPVLVHNGKPICESMIIVQYIDEAFLVGPSLLPSDPYKRAIARFWAAYIDDKLVTPWVQSLRAKTEEEKSEGVKQTFAAVETLEGALRECSKGEGYFGGETVGLVDISLGSLLSWLIATEVMSGTKIFDPVKTPLLAAWMGRFSELDAAKAALPEVDRVVEFAKKRQAQADAAAAASETK

Tests used:
Type in all cases: biochemical
[1] = Enzyme dependent formation of the GSH adduct with trichodermin; settings: FIG. 14; pCA02 empty vector and no protein as controls
[2] = Enzyme dependent formation of the GSH adduct with roridin A; settings: FIG. 17; pCA02 empty vector and no protein as controls
[3] = Enzymatic DON-GSH conjugation assay (LC-HRMS, Orbitrap); settings: 100 ppm DON, 5 mM GSH, pH6, within 24 hours; for formation of the Michael adduct of DON (MH1): against nonenzymatic background; for formation of the epoxide adduct of DON (MH2, DON-13-GSH): result in words
[4] = Enzyme dependent formation of the GSH adduct with T-2 toxin; settings: FIG. 11; pCA02 empty vector and no protein as controls

Row | Molecule | formation of the GSH adduct with trichodermin (Trichodermin-GSH_MH) [1] | formation of the GSH adduct with roridin A (Roridin-GSH_MH) [2] | formation of the Michael adduct of DON (MH1) [3] | formation of the epoxide adduct of DON (MH2, DON-13-GSH) [3] | formation of the GSH adduct with T-2 toxin (T-2-GSH_MH) [4]
1 | B1 | Enzyme dependent formation of the GSH adduct | Enzyme dependent formation of the GSH adduct | clearly enhance Michael adduct formation; also recorded: clearly catalyze | clearly catalyze the formation of the epoxide-adduct; also recorded: catalyzed | Enzyme dependent formation of the GSH adduct
2 | B2 | Enzyme dependent formation of the GSH adduct | Enzyme dependent formation of the GSH adduct | clearly enhance Michael adduct formation; also recorded: clearly catalyze | clearly catalyze the formation of the epoxide-adduct; also recorded: catalyzed | Enzyme dependent formation of the GSH adduct
